We go through 41 sequences from the nanobody polyreactivity screen of Harvey et al. (2022).

A short description of this data set: yeast display, Sf9 membrane polyspecificity reagent, FACS + sequencing; frameworks hold sequencing errors. Put shortly: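 Polyreactivity labels are assigned by the sorting gate from which each nanobody was recovered. The gates were low and high (top ~1%), set on anti-HA fluorescence for expression and streptavidin fluorescence for reagent binding. Before sorting, galactose-induced (36–48 hours) yeast display cells were stained for 1 hour at 4 °C with 10% biotinylated, detergent-solubilized Sf9 membrane reagent.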
With “QVQLVESGGGLVQAGGSLRLSCAASGITFRKYAMGWYRPAPGKERELVAAISSGGSRTYYADSVKGRFTISRDNAKNTVYLQMNSLKPEDTAVYYCAARKADTVFKFEYWGQGTQVTVSS”, the “polyreactivity (PSR sort gate)” value was “high polyreactivity”.
As for “QVQLVESGGGLVQAGGSLRLSCAASGITFRKYAMGWYRQAPGKERELVAGIRYSGSSTYYADSVKGRFTISRDNAKNTVYLQMNSLTPEDTAVYYCAVYGTTRYATTYDYWGQGTQVTVSS”, the entry is “high polyreactivity”.
Turning to “QVQLVESGGGLVQAGGSLRLSCAASGITFRKYAMGWYRQAPGTERELVAAISAGGGRTFYADSVKGRFTISRDNAKNTVYLQMNSLKPEDTAVYYCNADLGIGYDYWGQGTQVTVSS”, the “polyreactivity (PSR sort gate)” value is listed as “high polyreactivity”.
In the case of “QVQLVESGGGLVQAGGSLRLSCAASGITFRLYAMGWYRPAPGKERELVAAISKRGGSTYYADSVKGRFTISRDNAKNTVYLQMNSLKPEDTAVYYCAADSGWEHRYDYWGQGTQVTVSS”, the “polyreactivity (PSR sort gate)” value is given as “high polyreactivity”.
In the case of “QVQLVESGGGLVQAGGSLRLSCAASGITFRLYAMGWYRQAPGKEREFVAAISRRGGSTYYADSVKGRFTISRDNAKNTVYLQMNSLKPEDTAVYYCARYGLVYALGYWGQGTQVTVSS”, the “polyreactivity (PSR sort gate)” value is recorded as “high polyreactivity”.
Take “QVQLVESGGGLVQAGGSLRLSCAASGITFRNYAMGWYRQAPGKEREFVAAIRWGGGSTYYEDSGKGRFTISLDNAKNTVYLQMNSLKPEDTAVYYCATRGYSRNNPYSRPYDYWGQGTQVTVSS”: the “polyreactivity (PSR sort gate)” value is recorded as “high polyreactivity”.
In the case of “QVQLVESGGGLVQAGGSLRLSCAASGITFRRYALGWYRQAPGKERELVAAITSGGGTYYADSVKGRFTISRDNAKNTVYLQMNSLKPEDTAVYYCNTYYHWLTMDYWGQGTQVTVSS”, the “polyreactivity (PSR sort gate)” value is given as “high polyreactivity”.
As for “QVQLVESGGGLVQAGGSLRLSCAASGITFRRYAMGWYRPAPGKERELVAVISVSGGRTHYADSVKGRFTISRDNAKNTVYLQMNSLKPEDTAVYYCAADFLRYPLGYWGQGTQVTVSS”, the “polyreactivity (PSR sort gate)” value was “high polyreactivity”.
Regarding “QVQLVESGGGLVQAGGSLRLSCAASGITFRRYTMGWYRQAPGKERELVAAISRTGGSTYYADSVKGRFTISRDNAKNTVYLQMNSLKPEDTAVYYCAARPHRYTSRHGYWGQGTQVTVSS”, the “polyreactivity (PSR sort gate)” value is listed as “high polyreactivity”.
Take “QVQLVESGGGLVQAGGSLRLSCAASGITFRRYTMGWYRQAPGKERELVAAITSRGSSTYYADSVKGRFTISRDNAKNTVYLQMNSLKPEDTAVYYCAAQYRQRRHDYWGQGTQVTVSS”: the “polyreactivity (PSR sort gate)” value is listed as “high polyreactivity”.
As for “QVQLVESGGGLVQAGGSLRLSCAASGITFRRYTMGWYRQAPGKERELVATISLSDGNTYYADSVKGRFTISRDNAKNTVYLQMNSLKPEDTAVYYCNALHTWHQTYYYWGQGTQVTVSS”, the “polyreactivity (PSR sort gate)” value was “low polyreactivity”.
“QVQLVESGGGLVQAGGSLRLSCAASGITFRVYVMGWYRQAPGKERELVAAITRSGGRTYYADSVKGRFTISRDNAKNTVYLQMNSLKPEDTAVYYCAAEYDVYGIYEYDYWGQGTQVTVSS”: the “polyreactivity (PSR sort gate)” value is reported as “high polyreactivity”.
The entry for “QVQLVESGGGLVQAGGSLRLSCAASGITFRWYAMGWSRQAPGKERELVAAIDGGGSTYYADSVKGRFTISRDNAKNTVYLQMNSMKPEDTAVYYCAADYGRRYHTPYGWDYYYWGQGTQVTVSS” is “high polyreactivity”.
As to “QVQLVESGGGLVQAGGSLRLSCAASGITFRWYAMGWYRQAPGKEREFVAAIDASGSTYYADSVKGRFTISRDNAKNTVYLQMNSLKPEDTAVYYCAADWDEYFGGDYWGQGTQVTVSS”, the “polyreactivity (PSR sort gate)” value is “low polyreactivity”.
Turning to “QVQLVESGGGLVQAGGSLRLSCAASGITFRWYAMGWYRQAPGKERELVALIDGRGASTYADSVKGRFTISRDNAKNTVYLQMNSLKPEDTAVYYCAVAQVRVTYLWVRKFYYWGQGTQVTVSS”, the “polyreactivity (PSR sort gate)” value is listed as “high polyreactivity”.
On to “QVQLVESGGGLVQAGGSLRLSCAASGITFRYNAMGWYRQAPGKERELVAAISYSGGSTYYADSVKGRFTISRDNAKNTVYLQMNSLKPEDTAVYYCAARIYSYPRGQYDYWGQGTQVTVSS”, for which the “polyreactivity (PSR sort gate)” value is reported as “low polyreactivity”.
The entry for “QVQLVESGGGLVQAGGSLRLSCAASGITFRYYAKGWYRQAPGKERELVAAISRAGSTNYADSVKGRFTISRDNAKNTVYLQMNSLKPVDTAVYSCNARRRSTNAVSYRYITPYDYWGQGTQVTVSS” is “high polyreactivity”; for “QVQLVESGGGLVQAGGSLRLSCAASGITFRYYAMGWYRQAPGKERELVADINRGSDTNYADSVKGRFTISRDNAKNTVYLQMNSLKPEDTAVYYCNAYWQGYGYDYWGQGTQVTVSS” it is “low polyreactivity”; for “QVQLVESGGGLVQAGGSLRLSCAASGITFRYYTMGWYRQAPGKERELVAAITTSGTGTYYADSVKGRFTISRDNAKNTVYLQMNSLNPEYSAVYYCATYPHIAVLSRYDYWGQGTQVTVSS” it is “low polyreactivity”.
Consider “QVQLVESGGGLVQAGGSLRLSCAASGITFSAYAMGWYRQAPGKERELVARISTDADTYYADSVKGRFTISRDNAKNTVYLQMNSLKPEDTAVYYCNADWSWYNYYDFDYWGQGTQVTVSS”, for which the “polyreactivity (PSR sort gate)” value is recorded as “low polyreactivity”.
For the sequence “QVQLVESGGGLVQAGGSLRLSCAASGITFSFYVMGWDRQAPRKERELVAAISRGGSTYYADSVKGRFTISRDNAKNTVYLQMNSLKPEDTAVYYCAAVRLSRVYYWGQGTQVTVSA”, the “polyreactivity (PSR sort gate)” value is given as “high polyreactivity”.
For the sequence “QVQLVESGGGLVQAGGSLRLSCAASGITFSGNAKGWYRQAPGKERELDAAITFSGGITYYADSVKGRFTISRDNAKNTVFLQMNSLKPEDTAVYYSATDPIGGWTRPQRYGDDYWGQGTQVTVSS”, the “polyreactivity (PSR sort gate)” value is on record as “low polyreactivity”.
On to “QVQLVESGGGLVQAGGSLRLSCAASGITFSGNAMGWYRQAPGKEREFVAAITFSGGRTYYADSVKGRFTISRDNAKNTVYLQMNSLKPEDTAVYFCAAETPRGRWLGDYWGQGTQVTVSA”, for which the “polyreactivity (PSR sort gate)” value is on record as “low polyreactivity”.
For the sequence “QVQLVESGGGLVQAGGSLRLSCAASGITFSGYDMGWYRQAPWKERELVASSTYYADSVKGRFTISRDNAKNTVYLQMNSLKPEDTAVYYCAADSPGDFGGYGFDYWGQGTQVTVSS”, the “polyreactivity (PSR sort gate)” value is “high polyreactivity”.
The entry for “QVQLVESGGGLVQAGGSLRLSCAASGITFSKYAMGWYRQAPGKERELVASITWSGTSTYYADSVKGRFTISRDNAKNTVYLQMNSLKPEDTAVYYCAAEGWGTFWRPPNGYGYEHDYWGQGTQVTVSS” is “low polyreactivity”.
The entry for “QVQLVESGGGLVQAGGSLRLSCAASGITFSNYSMGWYRQAPGKERELVAAISKRGGSTYYADSVKGRFTISRDNAKNTVYLQMNSLKPEDTAVYNCAAAGVRVYVRSGLDYWGQGTQVTVSS” is “high polyreactivity”.
As for “QVQLVESGGGLVQAGGSLRLSCAASGITFSRNAMGWYRQAPGKERELVAVISTRGGRTYYADSVKGRFTISRDNAKNTVYLQMNSLKPEDTAVYYCAASPDPYWRRMDYWGQGTQVTVSS”, the “polyreactivity (PSR sort gate)” value is given as “high polyreactivity”.
On to “QVQLVESGGGLVQAGGSLRLSCAASGITFSRYAMGWYRQAPGKERELVAAITARGGTTYYADSVKGRFTISRDNAKNTVYLQMNSLKPEDTAVYYCAAYKTYGSKYVFVDPGEYDYWGQGTQVTVSS”, for which the “polyreactivity (PSR sort gate)” value is listed as “high polyreactivity”.
Turning to “QVQLVESGGGLVQAGGSLRLSCAASGITFSRYAMGWYRQAPGKERELVAAITSSGGSTYYADSVKGRFTISRDNAKNTVYLQMNSLKPEDTAVYYCAATSYYTREQYYYWGQGTQVTVSS”, the “polyreactivity (PSR sort gate)” value is given as “high polyreactivity”.
The entry for “QVQLVESGGGLVQAGGSLRLSCAASGITFSSYAMGWSRQAPGKERELVAAIRRRGGTTYYADSVKGPFTISRDNAKNTVYLQMNSLKPEDTAVYYCAARSKSAYWGQGTQVTVSS” is “high polyreactivity”.
The entry for “QVQLVESGGGLVQAGGSLRLSCAASGITFSYALGWYRQAPGKERELVAGITTSGGSTYADSVKGRFTISRDNAKNTVYLQMNSLKPEDTAVYYCAADRSAVQFSAFLEYDYWGQGSQVTVSS” is “low polyreactivity”; for “QVQLVESGGGLVQAGGSLRLSCAASGITFSYNAMGWYRQAPGKERELVAAISSNSDSTYYADSVKGRFTISRDNAKNTVYLQMISLKPEDTAVYYCADDTPDAPDYSGFYYWGQGTQVTVSS” it is “low polyreactivity”.
On to “QVQLVESGGGLVQAGGSLRLSCAASGITFSYYAMGWYRKAARKERELVAAINGGGSRTYYADSVKGRFTISRDNAKNTVYLQMNSLKPEETAVYYCAAYSGQARGYDYWGQGTQVTVSS”, for which the “polyreactivity (PSR sort gate)” value was “high polyreactivity”.
Regarding “QVQLVESGGGLVQAGGSLRLSCAASGITFSYYAMGWYRPAPGKERELVAAINSGGGSTYYADSVKGRFTISRDNAKNTVYLQMNSLKPEDTAVYYCAARYRSRYDYYYDRDYWGQGTQVTVSS”, the “polyreactivity (PSR sort gate)” value was “low polyreactivity”.
In the case of “QVQLVESGGGLVQAGGSLRLSCAASGITFTFYAMGWYRQAPGKERELVAAISRRGGSTYYADSVKGRFTISRDNAKNTVYLQMNSLKPEDTAVYYCAARGYRPMDYWGQGTQVTVSS”, the “polyreactivity (PSR sort gate)” value is recorded as “high polyreactivity”.
As for “QVQLVESGGGLVQAGGSLRLSCAASGITFTRYTMGWYRPAPGKERELVAAITGGSTYYADSVKGRFTISRDNAKNTVYLQMNSLKPEDTAVYYCAAAYESPYIQPLDYWGQGTQVTVSS”, the “polyreactivity (PSR sort gate)” value is “high polyreactivity”.
As for “QVQLVESGGGLVQAGGSLRLSCAASGITFTSYAMGWYRQAPGKERELVAAISSSGGSTYYADSVKGRFTISRDNAKNTVYLQMNRLKPEDTAVFYCNARPRSRSPRVEYDYWGQGTQVNVSS”, the entry is “high polyreactivity”.
“QVQLVESGGGLVQAGGSLRLSCAASGITFTSYAMGWYRQAPGKERELVASIDSDDSTNYADSVKGRFTISRDNAKNTVYLQMNSLKPEDTAVYYCAASDNDDWYYVYHYDYWGQGTQVTVSS”: the “polyreactivity (PSR sort gate)” value was “low polyreactivity”.
For the sequence “QVQLVESGGGLVQAGGSLRLSCAASGITFTSYVMGWYRQAPGKERELVAAIRWSGGRTYYADSVKGRFTISRDNAKNTVYLQMNSLKPEDTAVYYCNADYAYNSYGYRFYYWGQGTQVTVSS”, the “polyreactivity (PSR sort gate)” value is on record as “high polyreactivity”.
As for “QVQLVESGGGLVQAGGSLRLSCAASGITFTVNAMGWYRQAPGKERELVAAISNDGSTYYADSVKGRFTISRDNAKNTVYLQMNSLKPEDTAVYYCSADTWDDFGPYGYDYWGQGTQVTVSS”, the entry is “low polyreactivity”.
Take “QVQLVESGGGLVQAGGSLRLSCAASGITFTVYAMGWYRQARGKERELVAAINSGSSTNYADSVKGRFTISRDNAKNTVFLQMNSLKPEDTAVYYCAASYRKLPDKKRYGYWGQGTQVTVSS”: the “polyreactivity (PSR sort gate)” value is “high polyreactivity”.
